Data set [1] concerns the target T1, ectoine synthase (Pl)EctC (Paenibacillus lautus, UniProt A0A1R1AV52).
T1 construct: full-length (130 amino acids), C-terminal Strep-tag II
In words: X-ray crystal structure ([…] Å). It counts as binding.

Data set [2] concerns the target Paenibacillus lautus ectoine synthase fused at its C-terminus to a Strep-tag II affinity peptide [(Pl)EctC-Strep-tag II] (Paenibacillus lautus Y4.12MC10). Put plainly: SEC-MALS; HPLC-MALS; 200 µl of purified (Pl)EctC protein (2 mg ml^-1) loaded onto a Bio SEC-5 HPLC column; measured mass 32.2 kDa against 15.87 kDa calculated for the monomer.
Substrate in data set [3]: CC(=O)NCC[C@H](N)C(=O)O
In words: purified protein. It counts as binding, Paenibacillus lautus. The conditions noted are these: Fe2+ active site in the cupin barrel; Trp-21, Arg-25, Asn-38, Thr-40, Tyr-52, Glu-57; acetamide oxygen coordinates the iron.

For orientation: stoichiometry N means a count of units in the complex or per binding partner. By Km is commonly meant the concentration of substrate that gives half-maximal velocity.

Regarding `CC1=N[C@H](C(=O)O)CCN1` [ectoine, (S)−2-methyl-1,4,5,6-tetrahydropyrimidine-4-carboxylic acid], the “X-ray crystal structure (2.5 Å)” value in data set [1] is recorded as “The ectoine molecule is coordinated within the active site of the (Pl)EctC enzyme through five direct interactions”.
Regarding “Paenibacillus lautus ectoine synthase fused at its C-terminus to a Strep-tag II affinity peptide [(Pl)EctC-Strep-tag II] (enzyme)”, the stoichiometry N in data set [2] is 2.

B1: ectoine synthase (Pl)EctC (Paenibacillus lautus) (protein)
chain: MIVKHLEEIVDTKDDIDTKTWNSRRLLLTKDGMGFSLNDTLIKAGTETLIWYKNHVEAVYCIEGEGEIEVIGGETYPISPGMMYALDGHEKHYLRARSQMRMVCVFNPPLTGAEVHDEEGTYPLLAPISD
notes: full-length (130 amino acids), C-terminal Strep-tag II
Regarding B1, in data set [3], the Km is listed as 7.8 mM.
